From the supplement of paper PMC10065799, “High-throughput profiling of sequence recognition by tyrosine kinases and SH2 domains using bacterial peptide display” (eLife, 2023)

Legend:
c-Src SH2 = assay: SH2 binding enrichment of the phosphorylated peptide, bacterial display (enrichment ratio); higher = better substrate or ligand; peptides without Tyr show the background
SHP2-C SH2 = assay: as above
Grb2 SH2 = Grb2 SH2 (UniProt P62993); assay: as above
c-Src = assay: phosphorylation enrichment, bacterial display (enrichment ratio); higher = better substrate or ligand; peptides without Tyr show the background
EPHB2 = EPHB2 (UniProt P29323); assay: as above
EPHB2, sequence (P29323 whole entry, looked up): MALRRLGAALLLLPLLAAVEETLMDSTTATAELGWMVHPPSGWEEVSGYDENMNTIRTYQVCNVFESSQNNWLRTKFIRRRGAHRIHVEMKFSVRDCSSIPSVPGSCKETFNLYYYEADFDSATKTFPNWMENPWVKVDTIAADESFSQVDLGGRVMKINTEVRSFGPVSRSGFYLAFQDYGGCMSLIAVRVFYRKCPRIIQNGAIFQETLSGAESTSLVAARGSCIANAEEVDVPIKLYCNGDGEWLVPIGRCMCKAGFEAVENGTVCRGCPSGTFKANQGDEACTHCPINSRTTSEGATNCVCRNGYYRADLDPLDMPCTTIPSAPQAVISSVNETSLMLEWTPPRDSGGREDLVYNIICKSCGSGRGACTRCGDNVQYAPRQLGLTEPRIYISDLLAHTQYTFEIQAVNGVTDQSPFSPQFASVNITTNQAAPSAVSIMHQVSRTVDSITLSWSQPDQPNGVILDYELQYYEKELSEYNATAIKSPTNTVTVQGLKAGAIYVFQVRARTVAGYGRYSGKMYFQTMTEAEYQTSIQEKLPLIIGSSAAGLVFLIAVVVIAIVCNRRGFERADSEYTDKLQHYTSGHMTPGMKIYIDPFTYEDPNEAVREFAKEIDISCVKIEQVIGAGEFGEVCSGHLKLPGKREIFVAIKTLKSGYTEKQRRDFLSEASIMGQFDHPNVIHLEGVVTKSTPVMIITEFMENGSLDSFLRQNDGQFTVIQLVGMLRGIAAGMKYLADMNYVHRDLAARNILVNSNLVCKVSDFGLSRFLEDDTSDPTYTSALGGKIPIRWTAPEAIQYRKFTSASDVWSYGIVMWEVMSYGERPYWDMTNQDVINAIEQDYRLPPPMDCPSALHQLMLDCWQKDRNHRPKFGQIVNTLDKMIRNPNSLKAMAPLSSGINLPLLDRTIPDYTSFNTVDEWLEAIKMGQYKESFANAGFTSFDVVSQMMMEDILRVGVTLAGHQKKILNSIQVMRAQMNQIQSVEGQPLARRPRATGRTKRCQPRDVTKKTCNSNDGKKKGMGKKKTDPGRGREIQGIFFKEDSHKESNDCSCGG

FGFR1 = FGFR1 (UniProt P11362); assay: as above
FGFR1, sequence (P11362 whole entry, looked up): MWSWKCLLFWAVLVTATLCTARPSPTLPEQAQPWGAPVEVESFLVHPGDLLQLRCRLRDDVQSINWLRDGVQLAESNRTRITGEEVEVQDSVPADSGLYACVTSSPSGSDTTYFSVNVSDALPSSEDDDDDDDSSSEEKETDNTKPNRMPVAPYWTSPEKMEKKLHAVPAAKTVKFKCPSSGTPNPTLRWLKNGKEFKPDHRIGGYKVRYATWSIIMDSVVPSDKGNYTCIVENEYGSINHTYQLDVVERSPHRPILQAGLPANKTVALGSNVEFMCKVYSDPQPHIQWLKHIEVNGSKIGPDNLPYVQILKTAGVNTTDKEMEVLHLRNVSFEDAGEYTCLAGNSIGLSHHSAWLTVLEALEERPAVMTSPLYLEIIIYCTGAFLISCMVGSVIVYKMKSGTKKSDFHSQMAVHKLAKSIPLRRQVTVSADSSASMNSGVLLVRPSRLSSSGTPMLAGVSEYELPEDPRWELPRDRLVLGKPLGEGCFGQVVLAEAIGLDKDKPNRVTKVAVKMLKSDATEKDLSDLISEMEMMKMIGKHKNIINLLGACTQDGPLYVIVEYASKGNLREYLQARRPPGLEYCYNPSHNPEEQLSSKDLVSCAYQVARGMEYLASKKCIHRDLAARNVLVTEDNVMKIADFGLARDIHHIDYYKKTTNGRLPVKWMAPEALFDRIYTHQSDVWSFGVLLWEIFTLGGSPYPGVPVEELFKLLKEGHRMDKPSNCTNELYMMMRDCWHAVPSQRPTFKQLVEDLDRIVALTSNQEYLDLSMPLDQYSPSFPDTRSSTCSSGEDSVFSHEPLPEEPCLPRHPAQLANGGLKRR

Fes = Fes (UniProt P07332); assay: as above
Fes, sequence (P07332 whole entry, looked up): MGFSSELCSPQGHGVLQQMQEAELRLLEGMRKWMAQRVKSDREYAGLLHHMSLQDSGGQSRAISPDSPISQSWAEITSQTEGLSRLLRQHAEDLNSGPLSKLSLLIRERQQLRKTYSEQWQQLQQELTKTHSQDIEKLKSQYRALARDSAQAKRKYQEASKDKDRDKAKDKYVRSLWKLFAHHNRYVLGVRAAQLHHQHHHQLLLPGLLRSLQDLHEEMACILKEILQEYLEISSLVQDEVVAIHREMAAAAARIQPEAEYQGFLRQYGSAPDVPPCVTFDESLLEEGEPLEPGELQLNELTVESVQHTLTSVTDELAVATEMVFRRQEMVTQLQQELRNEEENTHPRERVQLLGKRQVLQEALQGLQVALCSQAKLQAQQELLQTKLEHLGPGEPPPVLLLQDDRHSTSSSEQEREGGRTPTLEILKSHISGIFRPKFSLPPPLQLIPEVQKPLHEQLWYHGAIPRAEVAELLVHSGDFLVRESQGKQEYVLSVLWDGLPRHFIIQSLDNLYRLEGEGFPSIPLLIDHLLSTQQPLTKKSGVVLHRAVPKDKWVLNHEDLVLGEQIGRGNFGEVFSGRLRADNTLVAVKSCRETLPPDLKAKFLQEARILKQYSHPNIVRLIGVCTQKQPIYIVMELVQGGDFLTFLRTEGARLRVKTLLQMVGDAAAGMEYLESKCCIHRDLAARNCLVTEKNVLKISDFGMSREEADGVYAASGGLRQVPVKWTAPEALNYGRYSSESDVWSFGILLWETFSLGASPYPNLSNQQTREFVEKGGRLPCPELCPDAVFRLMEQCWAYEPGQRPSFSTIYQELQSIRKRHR

Fer (mouse) = assay: as above
c-Abl (mouse) = assay: as above
FGFR3 = FGFR3 (UniProt P22607); assay: as above
FGFR3, sequence (P22607 whole entry, looked up): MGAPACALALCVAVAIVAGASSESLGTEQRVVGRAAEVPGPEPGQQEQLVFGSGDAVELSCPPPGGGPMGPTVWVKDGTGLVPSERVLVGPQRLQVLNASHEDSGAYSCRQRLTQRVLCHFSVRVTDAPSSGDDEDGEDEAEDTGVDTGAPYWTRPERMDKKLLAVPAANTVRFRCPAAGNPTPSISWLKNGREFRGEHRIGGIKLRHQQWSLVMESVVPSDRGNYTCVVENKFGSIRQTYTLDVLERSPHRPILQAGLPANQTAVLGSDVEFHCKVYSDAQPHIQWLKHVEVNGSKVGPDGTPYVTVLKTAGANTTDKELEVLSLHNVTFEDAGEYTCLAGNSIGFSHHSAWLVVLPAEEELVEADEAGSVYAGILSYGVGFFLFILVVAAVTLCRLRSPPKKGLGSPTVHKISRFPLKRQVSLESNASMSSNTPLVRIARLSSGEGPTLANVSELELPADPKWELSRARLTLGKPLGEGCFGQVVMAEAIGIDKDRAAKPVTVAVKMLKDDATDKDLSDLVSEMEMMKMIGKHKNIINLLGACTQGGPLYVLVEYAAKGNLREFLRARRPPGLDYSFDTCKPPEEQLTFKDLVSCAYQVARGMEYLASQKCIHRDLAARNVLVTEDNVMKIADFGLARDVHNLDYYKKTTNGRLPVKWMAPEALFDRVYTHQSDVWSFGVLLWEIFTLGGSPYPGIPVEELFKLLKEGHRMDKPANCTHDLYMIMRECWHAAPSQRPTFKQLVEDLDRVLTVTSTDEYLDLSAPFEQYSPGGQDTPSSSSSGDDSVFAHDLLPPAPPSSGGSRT

Jak2 = Jak2 (UniProt O60674); assay: as above
EPHB1 = EPHB1 (UniProt P54762); assay: as above
MERTK = MERTK (UniProt Q12866); assay: as above
AncSZ = assay: as above
Hck = Hck (UniProt P08631); assay: as above
Hck, sequence (P08631 whole entry, looked up): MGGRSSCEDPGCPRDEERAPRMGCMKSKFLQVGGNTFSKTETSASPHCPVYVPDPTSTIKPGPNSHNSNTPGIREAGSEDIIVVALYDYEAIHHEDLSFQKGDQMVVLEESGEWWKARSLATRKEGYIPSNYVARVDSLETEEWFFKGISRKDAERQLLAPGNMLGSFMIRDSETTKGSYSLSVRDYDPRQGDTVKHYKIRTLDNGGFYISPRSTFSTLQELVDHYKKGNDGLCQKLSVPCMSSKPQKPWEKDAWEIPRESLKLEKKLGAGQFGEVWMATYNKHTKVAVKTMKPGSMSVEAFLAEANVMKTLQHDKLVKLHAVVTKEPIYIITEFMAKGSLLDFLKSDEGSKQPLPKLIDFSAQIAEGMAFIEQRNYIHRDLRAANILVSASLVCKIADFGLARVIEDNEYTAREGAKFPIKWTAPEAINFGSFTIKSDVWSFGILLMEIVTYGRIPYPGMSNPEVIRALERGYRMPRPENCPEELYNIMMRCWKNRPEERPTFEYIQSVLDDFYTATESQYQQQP

Fyn = Fyn (UniProt P06241); assay: as above
Fyn, sequence (P06241 whole entry, looked up, the tested form may be a part): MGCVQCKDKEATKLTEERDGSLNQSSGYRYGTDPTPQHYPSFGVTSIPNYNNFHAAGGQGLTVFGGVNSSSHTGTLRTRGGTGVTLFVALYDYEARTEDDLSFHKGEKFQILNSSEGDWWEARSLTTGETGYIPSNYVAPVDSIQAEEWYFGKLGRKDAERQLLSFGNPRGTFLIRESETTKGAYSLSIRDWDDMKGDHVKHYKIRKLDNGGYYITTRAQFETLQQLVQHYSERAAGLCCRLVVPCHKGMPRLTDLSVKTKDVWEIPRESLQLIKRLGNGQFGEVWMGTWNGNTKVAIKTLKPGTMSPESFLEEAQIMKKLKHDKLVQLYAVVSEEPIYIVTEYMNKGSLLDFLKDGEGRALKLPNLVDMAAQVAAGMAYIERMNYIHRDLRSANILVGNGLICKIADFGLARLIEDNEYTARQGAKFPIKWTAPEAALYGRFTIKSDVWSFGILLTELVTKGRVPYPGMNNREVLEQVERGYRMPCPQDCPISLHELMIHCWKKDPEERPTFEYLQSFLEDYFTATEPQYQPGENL
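Wherever SH2 binding enrichment of the phosphorylated peptide, bacterial display is given: peptide library displayed on the E. coli surface as eCPX fusions, selected cells deep-sequenced, score is each peptide's frequency after selection divided by its frequency in the input.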
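Wherever phosphorylation enrichment, bacterial display is given: 11-residue human phosphosite peptides and single-mutation variants displayed on the E. coli surface, counted by deep sequencing, each peptide's frequency after selection divided by its frequency in the unselected input library; frequency after pTyr selection over input frequency; kinase dosed for 20-30% of maximal phosphorylation in three min.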

SH2 binding enrichment (c-Src SH2)	SH2 binding enrichment (SHP2-C SH2)	SH2 binding enrichment (Grb2 SH2)	Sequence	phosphorylation enrichment (c-Src)	phosphorylation enrichment (EPHB2)	phosphorylation enrichment (FGFR1)	phosphorylation enrichment (Fes)	phosphorylation enrichment (Fer (mouse))	phosphorylation enrichment (c-Abl (mouse))	phosphorylation enrichment (FGFR3)	phosphorylation enrichment (Jak2)	phosphorylation enrichment (EPHB1)	phosphorylation enrichment (MERTK)	phosphorylation enrichment (AncSZ)	phosphorylation enrichment (Hck)	phosphorylation enrichment (Fyn)
0.515	0.642	1.01	QGIIIYRAAYF [SLC25A4_Y187]	0.544	0.767	0.688	1.91	0.773	1.28	1.39	1.13	0.945	0.541	1.32	0.639	0.574
0.506	0.682	0.979	LEAFQYIGESQ [MSH2_Y856_E853A]	0.659	0.585	0.614	1.58	0.505	0.906	0.938	1.46	0.711	0.479	1.21	0.413	0.625
0.499	0.683	0.782	SPDMLYQFLKQ [RPAP3_Y567_YF]	1.77	0.749	1.7	0.971	7.72	0.695	1.35	0.679	0.943	4.98	0.997	7.82	0.792
0.902	1.07	1.27	FFHCTYKQRMI [CLEC12A_Y242_K244Q_YF]	0.435	0.608	0.643	1.28	0.513	0.85	0.752	1.02	0.687	0.517	1.04	0.498	0.493
0.529	0.479	0.888	AAVDTVCRHNF [HLA-DRB1_Y107_Y107V_YF]	0.491	0.577	0.499	1.29	0.54	0.937	0.533	1.15	0.521	0.488	0.765	0.429	0.398
1.07	1.04	1.22	PFRQWYESHFA [RPS8_Y113_YF]	0.972	0.786	0.731	1.11	3.73	0.764	0.524	0.963	0.827	0.906	1.08	0.68	0.586
0.634	0.658	1.08	FTTIHYNFMCN [TP53_Y234_C229Y_YF]	0.455	0.65	0.682	1.4	0.565	0.987	0.887	1.24	0.74	0.495	1.03	0.63	0.496
0.699	0.838	0.939	AEVDTYCRHNY [HLA-DRB1_Y107_A103E]	0.537	0.559	0.461	0.98	0.442	0.554	0.559	0.682	0.428	0.391	0.771	0.505	0.394
